Results as given in patent publication US20090017017A1 (SYMPHOGEN A S, published 2009).
Residue numbers refer to the chain shown, from its start.

Target: T1, Rhesus D antigen (human, UniProt Q02161 2-417)
T1 construct: whole, on cells; Presented on RhD(+) erythrocytes; also called RhD; RhD antigen
T1 sequence (looked up): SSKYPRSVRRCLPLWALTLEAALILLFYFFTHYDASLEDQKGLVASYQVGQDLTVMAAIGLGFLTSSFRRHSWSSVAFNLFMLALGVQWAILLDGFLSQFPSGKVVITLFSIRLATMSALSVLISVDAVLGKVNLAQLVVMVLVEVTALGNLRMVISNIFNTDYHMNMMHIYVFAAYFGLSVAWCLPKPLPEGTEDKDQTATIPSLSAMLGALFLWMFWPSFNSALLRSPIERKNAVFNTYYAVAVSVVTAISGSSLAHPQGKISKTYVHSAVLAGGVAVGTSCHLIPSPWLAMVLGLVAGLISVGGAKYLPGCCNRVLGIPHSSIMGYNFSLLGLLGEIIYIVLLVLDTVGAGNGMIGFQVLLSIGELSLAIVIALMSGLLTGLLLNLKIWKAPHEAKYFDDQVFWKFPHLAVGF
Test: agglutination assay, Fab periplasmic extract on RhD(+)/RhD(-) RBC mix
Procedure: After each round of panning single colonies were picked for analysis of their binding properties to red blood cells in agglutination assays. Briefly, single colonies were inoculated into 2×YT/100 μg/mL carbenicillin/1% glucose and shaken overnight at 37° C. The next day, DeepWell plates were inoculated using 900 μl 2×YT/100 μg/mL carbenicillin/0.1% glucose and 10 μl overnight culture. The plates were shaken for two hours at 37° C., before Fab induction was performed with addition of 300 μl 2×YT/100 μg/mL carbenicillin/0.25 mM IPTG per well. The plate was shaken overnight at 30° C. The following day, the bacteria were pelleted by centrifugation (3200×g, 4° C., 10 minutes), and re-suspended in 100 μl of 0.8 M NaCl, 0.2×PBS, 8 mM EDTA, and incubated for 15 minutes on ice in order to perform a periplasmic extraction of the Fab fragments. The plate was transferred to −20° C. and finally the suspension was thawed and centrifugation was performed for 10 minutes at 4° C. and 3200×g. The periplasmic extract was used in ELISA assays for analysis of Fab content and in agglutination assays to evaluate the binding potential of the individual Fab fragments.
The agglutination assay was performed as follows: RhD(−) and RhD(+) RBC were mixed in a 1:1 ratio, and washed 3 times in PBS. After the final wash, the cell mix was re-suspended in 1% BSA in PBS at a density of 10% cells, 50 μl was added to each well of a 96-plate. Periplasmic extracts were added to the wells. As a positive control Rhesogamma P immunoglobulin (Aventis) was used according to the manufacturer's instructions. The plates were incubated for one hour at room temperature with gentle shaking. The cells were washed three times with PBS, before the secondary antibody was added (goat anti-human Fab/FITC conjugate, Sigma F5512) in a 1:100 dilution. The plates were left for agglutination for one hour at room temperature without shaking. Fab fragments positive in the agglutination assay was determined by visual inspection, and recorded by taking a picture. Quantization of the binding activity of the Fab fragments was performed by FACS analysis of the agglutination samples.

B1: RhD190.119F05 (Fab, V domains shown)
VH: EVQLVETGGGVVQPGRSLRLSCAASGFSFSNYGMHWVRQAPGKGLEWVAVIWFDGSIKYYVDSVKGRFTISRDNSKNTLYLQMNSLRAEETAIYFCARENSVLVPGTIRRRYYLDYWGQGTLVTVSS
VL: DIQLTQSPSSLSASVGDRVTITCRASQSISSYLNWYQQKPGEAPKLLIYVASTLQSGAPSRFSGSGSGTDYTLTISSLQPEDSATFYCQQTYSPPYTFGQGTKLEIKR
notes: Tested as Fab in E. coli periplasmic extract (VH on human gamma 1 CH1, vector Em351)
binding result: binds

B2: RhD197.127A08 (Fab, V domains shown)
VH: QVQLVESGGGVVQPGRSLRLSCAASGFTFSNYGMHWVRQAPGKGLEWVAVIWFDGSNRDYADSVKGRFTISRDNSKKTLYLQMNSLRAEDTAVYYCATELARGRLRALEYWGQGTLVTVSS
VL: QTVVTQEPSLTVSPGGTVTLTCASSTGAVTTGYYPNWFQQKPGQAPRALIYSTSKKHSWTPARFSGSLLGGKAALTLSGVQPEDEAEYYCLLFYGGAQLGVFGGGTKLTVLG
notes: Tested as Fab in E. coli periplasmic extract (VH on human gamma 1 CH1, vector Em351); Lambda clone
binding result: binds

B3: RhD207.127A11 (Fab, V domains shown)
VH: EVQLVESGGGVVQPGRSLRLSCAASGFTFSSYGMHWVRQAPGKGLEWVAVIWYDGSNKDYVDSVKGRFTISRDNSKNTLYLQMNSLRAEDTAVYYCARELAKGRLRDLDHWGQGTLVTVSS
VL: B2 VL with T2A, I50V, Y51H
notes: as for B1
binding result: binds

B4: RhD191.119E08 (Fab, V domains shown)
VH: QVQLVESGGDLVQPGGSLRLSCAASGFTFRSYEMNWVRQAPGKGLEWVSYINSRGNTKYYADSVKGRFTISRDNAKKSLYLQMSSLRAEDTAVYYCARNLFGDYDLKSYYYNAMDVWGQGTLVTVSS
VL: EIVLTQSPGTLSSSPGERATLSCRASQSVTSRYLAWYQQKHGQAPRLLIYGTSTRATGIPDRFSGGGSQTDFTLTISRLEPEDFAVYYCQHYDDSISTYIFGPGTELEIKR
notes: as for B1
binding result: binds

B5: RhD192.119G06 (Fab, V domains shown)
VH: QVQLVESGGGLVKPGGSLRLSCAASGFTFSSYAMNWVRQAPGKGLEWVSSISGTSSYIYYADSVKGRFTIFRDNAKSSVYLQMNSLRVEDTAVYYCARDRWWGMVRRVFPTYPFDYWGQGTLVTVSS
VL: DIQLTQSPSSVSASVGDRVTITCRASQGINNLLAWYQQKPGKAPKLLIYAASNLQSGVPSRFSGSGSGTDFTLTINSLQPEDFATYYCQQANSFPLTFGGGTKVEIKR
notes: as for B1
binding result: binds

B6: RhD193.126G05 (Fab, V domains shown)
VH: QVQLVETGGGVVQPGRSLRLSCAASGFTFSSYGMHWVRQAPGKGLEWVAVIWYDGSNKDYADPVKGRFTISRDNSKNTLYLQMNSLRAEDTAVYYCAREIASRGYSRYLYYFDSWGQGTLVTVSS
VL: DIQMTQSPSSLSASVGDRVTITCRASQSISSYLNWYQQNPGKAPKLLIYGASNLQSGVPSRFSGSGSGTDFTLTISSLQPEDFATYYCQQSYSTLALTFGGGTKVEIKR
notes: as for B1
binding result: binds

B7: RhD297.126E06 (Fab, V domains shown)
VH: B6 VH with T7S, S30R, S31T, P63S, Y80H, F112L, S114F
VL: B6 VL with M4L
notes: as for B1
binding result: binds

B8: RhD194.126G10 (Fab, V domains shown)
VH: QVTLKESGPVLVKPTETLTLTCTVSGFSLSNARMGVSWIRQPPGKALEWLAHIFSNDEKSYSTSLKSRLTISKDTSKSQVVLTMTNMDPVDTATYYCARMRLTMVRGVITYYYYSMDVWGQGTTVTVSS
VL: DIQMTQSPSSLSASVGDRVTITCRASQSISTYLNWYQQKPGKAPKLLIYAASTLQSGVPSRFSGSGSGTHFTLTISSLQREDFATYYCQQTYRTPTWTFGQGTKVEIKR
notes: as for B1
binding result: binds

B9: RhD195.127A07 (Fab, V domains shown)
VH: QVQLQESGPGLVKPSQTLSLTCTVSGGSISSGSYYWSWIRQPAGKGPEWIGRIYTSGSTNYNPSLKSRLTISVDTSKNQFSLKLTSVTAADTAVYYCARAPSYYDSSGYRYWYIDLWGRGTLVTVSS
VL: DIQLTQSPSSLSASVGDRVTITCRASQNINRYLNWYQHKPGRAPELLIYAASTLRRGVPSRFSGSGSGTDFTLTISSLQPEDFATYYCQQSYSRGTFGQGTKVEIKR
notes: as for B1
binding result: binds

B10: RhD298.126E10 (Fab, V domains shown)
VH: QVQLVESGGGVVQPGRSLRLSCAASGFTFSSYGMHWVRQAPGKGLEWVAVIWYDGSNKYYADSVKGRFTISRDNSKNTLYLQMNSVRAEDTAVYYCARDLSTQRGYSRYYYVMDVWGQGTTVTVSS
VL: B8 VL with Y49S, T53S, H70D, F83Y, T85A, T91S, R93S, T96P, W97Y, V105L
notes: as for B1
binding result: binds

B11: RhD196.126H11 (Fab, V domains shown)
VH: B10 VH with Y59D, D99E, Y110H
VL: B8 VL with T91S, R93G
notes: as for B1
binding result: binds

B12: RhD198.127F10 (Fab, V domains shown)
VH: B10 VH with E6Q, R16K, S31T, N74T, A88V, S101T, Y110H
VL: DIQMTQSPSSLSASVGDRVTITCRASQSIGNYLNWYQQKPGKAPKLLISAASSLQSGVPSRFSGSGSGTDFTLTISSLHREDYATYYCQQSYSTPPYTFGQGTKLEIKR
notes: as for B1
binding result: binds

B13: RhD157.119D11 (Fab, V domains shown)
VH: EVQLVESGGGLVQPGGSLRLSCVASGFTFRSFDMNWVRQAPGKGLEWVSYINSRGSTIYYADSVKGRFTISRENAKNSLYLQMNSLRAEDTAVYYCARDLYGDYDPKSYYYYGMGVWGQGTTVTVSS
VL: EIVLTQSPATLSLSPGERATLSCRASQSVSSYLAWYQQKRGQAPRLLIFNASNRATGIPARFSGSGSGTDFTLTISSLEPEDFAVYYCQQRSSWPPMYTFGQGTKLEIKR
notes: as for B1
binding result: binds

B14: RhD200.164G10 (Fab, V domains shown)
VH: VQLVESGGGGVVQPGRSLRLSCAASGFTFSSYGMHWVRQAPGKGLEWVAVIWYDGSNKYYADSVKGRFTISRDNSKNTLYLQMNSLRAEDTAVYYCARESTLYSSSWYRRYYYYGMDVWGQGTTVTVSS
VL: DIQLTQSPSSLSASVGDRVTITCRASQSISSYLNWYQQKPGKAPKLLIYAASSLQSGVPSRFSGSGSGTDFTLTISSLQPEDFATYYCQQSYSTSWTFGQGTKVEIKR
notes: as for B1
binding result: binds

B15: RhD201.164H12 (Fab, V domains shown)
VH: B14 VH with V1Q, Q2V, L3Q, V4L, E5V, S6E, G7S, G33A, W52S, G115S
VL: EIVLTQSPATLSVSPGERATLSCRASQSVTSNLAWYQQKPGQAPRLLIYGASTRATGVPARFSGSGSGTEFSLTISSLQSEDFAVYYCQQYNNWPPIFTFGPGTKLDIKR
notes: as for B1
binding result: binds

B16: RhD202.158E07 (Fab, V domains shown)
VH: QVQLVESGGGVVQPGRSLRLSCAASGFTFSSYGMHWVRQAPGKGLEWVAVIWFDGSNRYYGDSVKGRVTISRDNSKNTLYLRMNSLRAEDTAVYYCAREFYTRSGLWSQGYSYYMDVWGKGTTVTVSS
VL: EIVLTQSPGTLSLSPGERATLSCRASQSVSSSYLAWYQHKPGQAPRLLIYGSSNRATGIPDRFSGSGSGTDFTVTISRLEPEDFAVYYCQQYGTAPYTFGQGTKLEIKR
notes: as for B1
binding result: binds

B17: RhD203.179F07 (Fab, V domains shown)
VH: EVQLVESGGGVVQPGRSLRLSCAASGFTFSNYGMHWVRQAPGKGLEWVAVIWYDGSNKYYADSVKGRFTISRDNSKNTLYLQMNSLRAEDTAVYYCAREMVSYSSSWYRRYYYYVMDVWGKGTTVTVSS
VL: QSALTQPASVSGSPGQSITISCTATSSDIGAYNYVSWYQHHPGKAPKVIITDVNKRPSGVPDRFSGSKSGNTASLTISGLQPEDEAEYSCCSYAGTYSYVFGTGTKVTVLS
notes: as for B1
binding result: binds

B18: RhD204.128A03 (Fab, V domains shown)
VH: EVQLVESGGGVVQPGRSLRLSCAASGFSFSNYGMHWVRQAPGKGLEWVAVISYDGSEKYYADSVKGRFTISRDNSKKALYLQMNSLRAEDTAMYYCKNKVGATRRAVVAFDIWGQGTTVTVSS
VL: LSSELTQDPAVSVALGQTVRITCQGDSLRSYYANWYQQKPGQAPLSVIYGKNNRPSGIPDRFSGSNSGNTAFLTITGTQAEDEADYYCNSRDSSGNYRELFGGGTKLTVLG
notes: as for B2
binding result: binds

B19: RhD205.160B12 (Fab, V domains shown)
VH: EVQLVETGGGLVKPGGSLRLSCAASGFTFRSYSMNWVRQAPGKGLEWVSSIGSSSTYTYSADSVKGRFTISRDNAKNSLYLQMNSLRAEDTAVYYCARGEPLNYDYIWGGYRFTIHWGQGTLVTVSS
VL: DIQLTQSPSFLSASVGDRVTITCRASHGISSYLAWYQQKPGKAPNLLIFPASTLQSGVPSRFSGSGSGTEFTLTISSLRPEDFATYYCQQLNSYSRWAFGQGTKVEVKR
notes: as for B1
binding result: binds
